B1: 20B9 EGFRvIII specific CAR (other)
chain: QVTLKESGPVLVKPTETLTLTCTVSGFSLSNARMGVSWIRQPPGKALEWLGHIFSTDEKSYSTSLRGRITISKDTSRGLVVLTLTNMDPVDTATYYCARDSSNYEGYFDFWGPGFLVTVSSGGGGSGGGGSGGGGSGGGGSEIVMTQSPATLSVSPGERATLSCRVSQSIGANLAWYQQKFGQAPRLLIYGASTRATGIPVRFSGGGSGTEFTLTISSLQSEDFAIYSCQQYIYWPFTFGPGTTVDIKTTTPAPRPPTPAPTIASQPLSLRPEACRPAAGGAVHTRGLDFACDIYIWAPLAGTCGVLLLSLVITLYCKRGRKKLLYIFKQPFMRPVQTTQEEDGCSCRFPEEEEGGCELRVKFSRSADAPAYQQGQNQLYNELNLGRREEYDVLDKRRGRDPEMGGKPRRKNPQEGLYNELQKDKMAEAYSEIGMKGERRRGKGHDGLYQGLSTATKDTYDALHMQALPPR
notes: Chimeric antigen receptor on primary human T cells
B2: 20E12 EGFRvIII specific CAR (other)
chain: EVNLVESGGGLVKPGGSLRLSCEASGFTFSYAWMSWVRQAPGKGLEWVGRIKSIADGGATDYAAPVRNRFTISRDDSRNTLYLEMHSLKTEDTAVYYCTTIPGNDAFDMWGQGTMVTVSSGGGGSGGGGSGGGGSGGGGSDIVLTQSPLSLSVTPGEPASISCRSSQSLLYSNGKNYLDWFLHKPGQSPQLLIYLGSNRASGVPDRFSGSGSGIDFILKISRVEAEDVGVYYCMQAQQTPITFGQGTRLEIKTTTPAPRPPTPAPTIASQPLSLRPEACRPAAGGAVHTRGLDFACDIYIWAPLAGTCGVLLLSLVITLYCKRGRKKLLYIFKQPFMRPVQTTQEEDGCSCRFPEEEEGGCELRVKFSRSADAPAYQQGQNQLYNELNLGRREEYDVLDKRRGRDPEMGGKPRRKNPQEGLYNELQKDKMAEAYSEIGMKGERRRGKGHDGLYQGLSTATKDTYDALHMQALPPR
notes: as for B1
B3: 14C11 EGFRvIII specific CAR (other)
chain: QVTLKESGPVLVKPTETLTLTCTVSGFSLNNARMGVSWIRQPPGKALEWFAHIFSTDEKSFRTSLRSRLTLSKDTSKSQVVLTMTNMDPVDTATYYCARDSSNYEGYFDYWGQGILVTVSSGGGGSGGGGSGGGGSGGGGSEIVMTQSPATLSVSPGERATLSCRASQSVSNNLAWYQQKPGQAPRLLIYGASTRATGVPARFSGSDSGTEFSLTISSLQSEDFAVYFCQQYKDWPFTFGPGTKVEIKTTTPAPRPPTPAPTIASQPLSLRPEACRPAAGGAVHTRGLDFACDIYIWAPLAGTCGVLLLSLVITLYCKRGRKKLLYIFKQPFMRPVQTTQEEDGCSCRFPEEEEGGCELRVKFSRSADAPAYQQGQNQLYNELNLGRREEYDVLDKRRGRDPEMGGKPRRKNPQEGLYNELQKDKMAEAYSEIGMKGERRRGKGHDGLYQGLSTATKDTYDALHMQALPPR
notes: as for B1
B4: h62G7-L6/EQ EGFRvIII specific CAR (other)
chain: DVVMTQSPLSLPVTLGQPASISCKSSQSLLYSNGKTYLNWFQQRPGQSPRRLIYQVSKLDSGVPDRFSGSGSGTDFTLKISRVEAEDVGVYYCGQDTHFPLTFGGGTKVEIKGGGGSGGGGSGGGGSGGGGSQVQLVQSGAEVKKPGASVKVSCKASGYTFTDYTLHWVRQAPGQGLEWMGGIWPITGGTTYNQKFKGRVTMTRDTSTSTVYMELSSLRSEDTAVYYCARGEAQGSWGQGTLVTVSSTTTPAPRPPTPAPTIASQPLSLRPEACRPAAGGAVHTRGLDFACDIYIWAPLAGTCGVLLLSLVITLYCKRGRKKLLYIFKQPFMRPVQTTQEEDGCSCRFPEEEEGGCELRVKFSRSADAPAYQQGQNQLYNELNLGRREEYDVLDKRRGRDPEMGGKPRRKNPQEGLYNELQKDKMAEAYSEIGMKGERRRGKGHDGLYQGLSTATKDTYDALHMQALPPR
notes: as for B1
B5: 42G9 EGFRvIII specific CAR (other)
chain: QVTLKESGPVLLKPTETLTLTCTVSGFSLSNPRMGVSWIRQPPGKALEWFAHIFSTDEKSLKLSLRSRLTLSKDTSKSQVVLTMTNMAPVDSATYYCARDSSNYEGYFDFWGQGTLVTVSSGGGGSGGGGSGGGGSGGGGSEVVLTQSPATLSVSPGERATLSCRASQSVRSNLAWYQQKSGQAPRLLIYGSTIRATGVPARFSGSGSGTEFTLTISSLQSEDFAVYYCQQYSDWPFTFGPGTKVDIKTTTPAPRPPTPAPTIASQPLSLRPEACRPAAGGAVHTRGLDFACDIYIWAPLAGTCGVLLLSLVITLYCKRGRKKLLYIFKQPFMRPVQTTQEEDGCSCRFPEEEEGGCELRVKFSRSADAPAYQQGQNQLYNELNLGRREEYDVLDKRRGRDPEMGGKPRRKNPQEGLYNELQKDKMAEAYSEIGMKGERRRGKGHDGLYQGLSTATKDTYDALHMQALPPR
notes: as for B1
B6: 30D8 (antibody, V domains shown)
VH: EVQLVESGGGLVKPGGSLRLSCEASGFTFSDAWMSWVRQAPGKGLEWVGRIKSKTDGGTTDYVVPLNGRFIISRDDSRNTLYLQLNNLKTEDTAVYYCTTVPGSYGYWGQGTLVTVSS
VL: DIVMTQSPLSLPVTPGEPASISCRSSQSLLHNKRNNYLDWFLQKPGQSPQLLIYLASNRASGVPDRFSGGGSGTDFTLKISRVEAEDVGVYYCMQAQQTPITFGQGTRLEIK
notes: Hybridoma supernatant (AlivaMab mouse); captured/detected via mouse Fc
B7: 30D8 EGFRvIII specific CAR (other)
chain: EVQLVESGGGLVKPGGSLRLSCEASGFTFSDAWMSWVRQAPGKGLEWVGRIKSKTDGGTTDYVVPLNGRFIISRDDSRNTLYLQLNNLKTEDTAVYYCTTVPGSYGYWGQGTLVTVSSGGGGSGGGGSGGGGSGGGGSDIVMTQSPLSLPVTPGEPASISCRSSQSLLHNKRNNYLDWFLQKPGQSPQLLIYLASNRASGVPDRFSGGGSGTDFTLKISRVEAEDVGVYYCMQAQQTPITFGQGTRLEIKTTTPAPRPPTPAPTIASQPLSLRPEACRPAAGGAVHTRGLDFACDIYIWAPLAGTCGVLLLSLVITLYCKRGRKKLLYIFKQPFMRPVQTTQEEDGCSCRFPEEEEGGCELRVKFSRSADAPAYQQGQNQLYNELNLGRREEYDVLDKRRGRDPEMGGKPRRKNPQEGLYNELQKDKMAEAYSEIGMKGERRRGKGHDGLYQGLSTATKDTYDALHMQALPPR
notes: as for B1
B8: 32A10 EGFRvIII specific CAR (other)
chain: QVTLKESGPVLVKPTETLTLTCTVSGFSLSNARMGVSWIRQPPGKALEWLAHIFSTDEKSIRRSLRSRLTLSKDTSKSQVVLTMTNMDPVDTATYFCARDSSNYEGYFDYWGQGTLVTVSSGGGGSGGGGSGGGGSGGGGSEVVMTQSPATLSVSPGERVTLSCRASQSVSSNFAWYQQRPGQAPRLLLYGATTRATGLPGRFSGSGSGTENILTISSLQSEDFAIYFCQQYKDWPFTFGPGSKVDIKTTTPAPRPPTPAPTIASQPLSLRPEACRPAAGGAVHTRGLDFACDIYIWAPLAGTCGVLLLSLVITLYCKRGRKKLLYIFKQPFMRPVQTTQEEDGCSCRFPEEEEGGCELRVKFSRSADAPAYQQGQNQLYNELNLGRREEYDVLDKRRGRDPEMGGKPRRKNPQEGLYNELQKDKMAEAYSEIGMKGERRRGKGHDGLYQGLSTATKDTYDALHMQALPPR
notes: as for B1
B9: 26B9 EGFRvIII specific CAR (other)
chain: EVQLVESWGVLVKPGGSLRLSCAASGFIFNNAWMSWVRQAPGKGLEWIGRIKSKSDGGTTDYAAPVKDRFTISRDDSKDTLYLQMNGLKTEDTAVYFCTTAPGGPFDYWGQGTLVTVSSGGGGSGGGGSGGGGSGGGGSDIVLTQSPLSLPVTPGEPASISCRSSQSLLHRDGFNYLDWFLQKPGQSPQLLIYLASSRASGVPDRFSGSDSGTDFTLKISRVEAEDVGVYYCMQALQTPITFGQGTRLEIKTTTPAPRPPTPAPTIASQPLSLRPEACRPAAGGAVHTRGLDFACDIYIWAPLAGTCGVLLLSLVITLYCKRGRKKLLYIFKQPFMRPVQTTQEEDGCSCRFPEEEEGGCELRVKFSRSADAPAYQQGQNQLYNELNLGRREEYDVLDKRRGRDPEMGGKPRRKNPQEGLYNELQKDKMAEAYSEIGMKGERRRGKGHDGLYQGLSTATKDTYDALHMQALPPR
notes: as for B1

Columns and labels:
[1] = target: T1, EGFR-mFc (human; mouse, UniProt P00533 25-645); assay: flow cytometry, CAR T cells stained with mFc fusion protein, Day 4
T1 construct: extracellular domain; Produced in HEK293 cells; also called recombinant EGFR-mFc; not shown: mouse IgG1-Fc domain
Text: To determine target binding specificity of the CARs, recombinant proteins EGFRvII-mFc and EGFR-mFc, which comprise of the extracellular domain of either human EGFRvIII or human wild-type EGFR, respectively, fused with mouse IgG1-Fc domain, were produced in HEK293 cells. […]

[2] = target: T2, 8-histidine tagged recombinant wild-type protein EGFRwt (UniProt P00533 25-645, limits assumed); assay: SPR, captured by anti-mouse Fc
T2 construct: not shown: 8-histidine tag

[3] = target: T3, Monomeric 8-histidine tagged human EGFRvIII extracellular domain (human, UniProt P00533 298-645); assay: SPR, captured by anti-mouse Fc, 37 C
T3 construct: Analyte in all SPR assays; not shown: 8-histidine tag

[4] = target: T4, human EGFRvIII expressed on cells (human, UniProt P00533 298-1210); assay: flow cytometry, F98-npEGFRvIII cells; as to MFI: test concentration or dose not given here
T4 construct: the F98-npEGFRvIII line was obtained from ATCC and its construct is not described; also called F98-npEGFRvIII; F98-EGFRvIII

[5] = target: T4, human EGFRvIII expressed on cells; assay: flow cytometry, F98-npEGFRvIII against F98, F98-EGFRwt and A431 cells

| Binder | binding result [1] | also measured |
| --- | --- | --- |
| B1 | no binding | – |
| B2 | no binding | – |
| B3 | no binding | – |
| B4 | no binding | – |
| B5 | no binding | – |
| B6 | – | binding result [2]: no binding (tested: 1000 nM); Kd [3]: 172 nM; koff [3]: 0.0277 s⁻¹; kon [3]: 161000 M⁻¹ s⁻¹; % positive [4]: 98.6%; MFI [4]: 5160; fold MFI on EGFRvIII expressing cell line over non-expressing cell lines [5]: ≥ 10 fold |
| B7 | no binding | – |
| B8 | no binding | – |
| B9 | no binding | – |

Reference: US20190144550A1 (Pfizer, published 2019)
